Data published in US20170137783A1.

Molecular target: mesothelin-Fc fusion protein, immobilized on beads (UniProt Q13421)
Test: cell-based or functional assay

Sequence of UniProt Q13421 (Q13421 other isoform, or with tags, fused parts or gaps limits assumed): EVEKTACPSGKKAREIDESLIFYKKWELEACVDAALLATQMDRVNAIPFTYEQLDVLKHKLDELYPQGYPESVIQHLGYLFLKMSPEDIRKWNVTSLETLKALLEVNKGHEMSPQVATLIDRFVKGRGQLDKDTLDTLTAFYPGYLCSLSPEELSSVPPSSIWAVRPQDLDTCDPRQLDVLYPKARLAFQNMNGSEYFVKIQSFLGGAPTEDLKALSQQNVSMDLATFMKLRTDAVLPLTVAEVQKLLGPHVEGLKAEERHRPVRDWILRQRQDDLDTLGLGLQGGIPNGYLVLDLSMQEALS

Row | Substance | Total Population Doublings (donor 1) (population doublings) | Total Population Doublings (donor 2) (population doublings) | Total Population Doublings (donor 3) (population doublings)
1 | mesothelin-specific 28z CAR (SS1 scFv, CD28 and CD3z signaling domains) (receptor) | 5.8 | 6.9 | 6
2 | mesothelin-specific BBz CAR (SS1 scFv, 4-1BB and CD3z signaling domains) (receptor) | 8.8 | 8.4 | 8.4
